Measured values from patent US20190298824A1, “ALBUMIN-BINDING IMMUNOMODULATORY COMPOSITIONS AND METHODS OF USE THEREOF” (THE UNITED STATES OF AMERICA, as represented by the …, priority 2016, published 2019).
Where two headings read alike, the source gives them in different places. Where no end group is shown, it is not given here.

What was measured:
[1] = design: species or system BALB/c mice; details: mouse, in vivo
Description: FIGS. 8A-8E. Biodistribution and LN retention of CpG on day3 and day5, as determined by ROI signal quantification of PET images and γ-counting of isolated organs. (A) PET quantification of the % ID of different forms of CpG in major organs on Day3. (B) Detailed PET quantification of the % ID of different forms of CpG in IN and AX LNs on Day3. (C) γ-counting quantification of the % ID/g of different forms of CpG in LNs on Day3. (D) γ-counting quantification of the % ID/g of different forms of CpG in major organs on Day5. (E) γ-counting quantification of the % ID/g of different forms of CpG in LNs on Day5. Due to signal decay over 5 days, the radioactivity was too low to be detected by PET on day5, so the % injection dose on Day5 was not determined by PET. ID: injection dose; ID/g: injection dose/gram of tissue.
The blood had less than 4% ID/g for all tested formulations. On day 5 post injection, even though the radioactivity of ^64Cu-labeled vaccines was too low to be sensitively detected by PET, the radioactivity of ex vivo organs were sensitively measured to determine the biodistribution profile (FIGS. 8D-8E).

[2] = mouse, in vivo, sc
Description: (A) Structures, formulations, and radiolabeling strategies of CpG derivatives for PET-based screening. (B) Representative coronal PET images showing FVB mice at 6 h post s.c. injection of CpG derivatives at tail base. […] White arrow heads mark IN and AX LNs. (C) Amounts of CpG derivatives in IN and AX LNs quantified from 3D-reconstructed, decay-corrected PET images (n=4-8).
Coronal (coro), transverse (trans), and 3D projection (proj) of PET images showing efficient LN-targeted delivery and whole-body distribution of MH2C over 3 days post injection. White arrow heads mark IN and AX LNs. The scale bar for 3D proj was based on the maximal signal intensity in each image. (Injection dose: 120 μCi; ID: injection dose).
Mice were s.c. injected with ^64Cu-radiolabeled AlbiCpG, followed by PET imaging to reveal its 3D biodistribution in mice over 3 days (FIG. 5B). […] Based on PET, decay-corrected radioactivity in draining inguinal (IN) LNs, and axillary (AX) LNs. LNs were quantified as the percentage of injection dose (% ID) (FIG. 5C).

[3] = PET imaging of 64Cu-labeled AlbiTrp2 LN delivery; assay type: in vivo, FVB mice; details: within 3 days
Description: FIG. 22A-22B. […] White arrows mark LNs.
(§1) Tyrosinase-related protein 2 (Trp2), a melanoma-associated subunit Ag, was used in this study. Trp2 with an N-terminal cysteine was conjugated with MEB to prepare albumin-binding MEB-Trp2 (denoted as AlbiTrp2). Hydrophilic MEB increased the water solubility of AlbiTrp2 relative to Trp2, and the resulting amphiphilic AlbiTrp2 self-assembled into nanoparticles in aqueous solution (FIG. 21A, 21B). […] To study LN-targeted Trp2 delivery, ^64Cu-labeled AlbiTrp2 was s.c. injected at the tail base of FVB mice for PET imaging (FIG. 22A).

albumin [4] = test: albumin binding of AlbiTrp2; details: R^2=0.88
Description: FIG. 21A-21C. TEM (A) and AFM (B) images of albumin/AlbiTrp2 nanocomplexes. The length-height graph in (B) was shown for the marked crossline in AFM image. (C) Albumin binding of AlbiTrp2 recovered the MEB fluorescence.
as §1

[5] = water solubility of MEB-peptide conjugates; assay type: physicochemical
Description: as §1
(§2) Encouraged by the efficient delivery of peptide antigen, AlbiVax-based neoantigen delivery was exploited for personalized tumor immunotherapy. Adpgk, a neoantigen [ASMTN(R→M)ELM] (SEQ ID NO: 86) in MC38 (colon cancer) tumor cells^7 was used. The conjugation of hydrophilic MEB improved the water solubility of MEB-Adpgk (denoted as AlbiAdpgk).

[6] = PET imaging of vaccine uptake in LNs of B16F10 tumor-bearing mice; assay type: in vivo, C57BL/6 mice
Description: FIG. 23A-23D. Representative PET images (A) and the corresponding quantification (B) showing the uptake of AlbiCpG (MEB-(HEG)2-CpG) in draining IN LNs and AX LNs of B16F10 tumor-bearing C57BL/6 mice. […] (C-D) Representative PET images (c) and the corresponding quantification (D) showing the uptake of AlbiTrp2 in LNs (IN and AX) of B16F10 tumor-bearing C57BL/6 mice. (Coro: coronal; trans: transverse; proj: projection; ID: injection dose; ID/g: ID/gram of organ weight)
For immunotherapy, C57BL/6 mice s.c. inoculated with 3×10^5 B16F10 cells were treated with AlbiCpG (2 nmole CpG equivalents)+AlbiTrp2 (20 μg) on days 6, 12, and 18 post inoculation. […] Furthermore, using a combination of multiple synergistic therapeutics can be used.

[7] = PET imaging of 64Cu-labeled AlbiAdpgk LN delivery; assay type: in vivo, FVB mice
Description: FIG. 25A-25D. Representative coronal and transverse of PET images (A) at 6 h post injection and quantification (B) of AlbiAdpgk, free Adpgk, and IFA(Adpgk) in IN and AX LNs of FVB mice (n=4/group). White arrows mark the LNs. (C) Quantified biodistribution of ^64Cu-labeled AlbiAdpgk in organs by γ-counting of excised organs at 48 h post injection. (D) % ID at injection sites quantified from decay-corrected PET scans.
as §2

albumin [8] = test: method not named; recovery of MEB fluorescence on albumin binding (FIG. 21C)
Target sequence in this assay (P02768 25-609): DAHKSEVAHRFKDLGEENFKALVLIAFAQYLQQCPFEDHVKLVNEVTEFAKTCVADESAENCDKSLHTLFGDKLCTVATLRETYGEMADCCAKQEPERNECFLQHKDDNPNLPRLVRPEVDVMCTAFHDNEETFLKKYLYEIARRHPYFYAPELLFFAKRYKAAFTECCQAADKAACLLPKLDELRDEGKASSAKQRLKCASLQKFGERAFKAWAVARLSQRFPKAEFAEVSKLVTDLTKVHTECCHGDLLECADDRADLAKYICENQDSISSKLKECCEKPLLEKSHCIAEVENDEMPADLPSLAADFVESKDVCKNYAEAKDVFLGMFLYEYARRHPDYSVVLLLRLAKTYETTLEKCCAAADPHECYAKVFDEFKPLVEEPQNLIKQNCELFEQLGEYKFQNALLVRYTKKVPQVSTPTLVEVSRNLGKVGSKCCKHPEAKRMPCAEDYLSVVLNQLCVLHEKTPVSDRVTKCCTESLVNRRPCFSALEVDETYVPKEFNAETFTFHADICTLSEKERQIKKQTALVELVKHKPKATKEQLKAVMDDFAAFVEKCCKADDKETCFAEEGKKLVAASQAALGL

[9] = tested on: BMDCs and RAW264.7 macrophages; test: ELISA of proinflammatory factors in culture medium (in vitro immunostimulation); assay type: cell-based

CpG 1826
% ID/g in inguinal LNs [1]: 8.3±4.7 % ID/g
radioactivity density in axillary LNs [1]: 3.2±1.2 %/g
accumulation / retention in LNs [2]: no apparent accumulation in any of the LNs

AlbiTrp2: Trp2 peptide with N-terminal cysteine conjugated with MEB (CSVYDFFVWL)
AUC in LNs relative to free Trp2 [3]: 91 fold
Kd (albumin [4]): 790 nM
water solubility [5]: increased
delivery to LNs in tumor-bearing mice [6]: efficiently delivered to LNs except tumor draining axillary LNs

AlbiAdpgk: MEB conjugate of Adpgk neoantigen ASMTNMELM (SEQ ID NO: 86) of MC38 (also: MEB (albumin-binding) conjugate, site not given here)
water solubility ([5]; relative to unconjugated peptide): improved
amount trapped at the injection sites relative to IFA(Adpgk) ([7]; PET): Significantly less
AUC in IN and AX LNs relative to Adpgk or IFA(Adpgk) ([7]; within 2 days): 43 fold

MEB-Trp2 (albumin-binding conjugate of maleimide-functionalized truncated Evans Blue with Trp2 peptide bearing an N-terminal cysteine) (from UniProt P29812 180-188)
Kd (albumin [8]): 790 nM

MEB-GpC: MEB conjugate of control GpC ODN (TCCATGAGCTTCCTGAGCTT, SEQ ID NO: 34) (DNA, backbone and methylation of C not given here; further chemistry not fully specified)
secretion of proinflammatory factors (ELISA) ([9]; BMDCs and RAW264.7 macrophages): did not stimulate these cells significantly more potently than the background
immunostimulatory activity (ELISA of culture medium) ([9]; RAW264.7 macrophages, alone or premixed with HSA): inactive for immunostimulation
